Results reported in the supplement of paper PMC7877785.
± gives the uncertainty stated by the source.

Test: self-splicing fitness, log relative to wild type (ln ratio); higher = more splicing; Tetrahymena group I intron in knt gene, E. coli kanamycin selection, DiMSum; sequences stand for … in CUCUCU…GGAGGGAAAAGUUAUCAGGCAUGCACCUGGUAGCUAGUCUUUAAACCAAUAGAUUGCAUCGGUUUAAAAGGCAAGACCGUCAAAUUGCGGGAAAGGGGUCAACAGCCGUUCAGUACCAAGUCUCAGGGGAAACUUUGAGAUGGCCUUGCAAAGGGUAUGGUAAUAAGCUGACGGACAUGGUCCUAACCACGCAGCCAAGUCCUAAGUCAACAGAUCUUCUGUUGAUAUGGAUGCAGUUCACAGACUAAAUGUCGGUCGGGGAAGAUGUAUUCUUCUCAUAAGAUAUAGUCGGACCUCUCCUUAAUGGGAGCUAGCGGAUGAAGUGAUGCAACACUGGAGCCGCUGGGAACUAAUUUGUAUGCGAAAGUAUAUUGAUUAGUUUUGGAGUACUCGUGGUCG
In short: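 Pooled colonies went to amplicon sequencing on an Illumina HiSeq 2500 after six replicate transformations. The plates were LB agar with 100 μg/mL carbenicillin, 50 μM IPTG and 0.2% rhamnose, with or without 25 μg/mL kanamycin, incubated overnight at 37°C or 30°C. The E. coli BL21(DE3) library had all eight P1ex-region intron nucleotides randomised, the intron placed in the knt kanamycin-resistance gene on pET-22b(+). DiMSum fitness is the error-weighted combination of replicate fold changes, kanamycin against none, normalised to wild type.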

Sequence | self-splicing fitness (ln) (30 °C) | self-splicing fitness (ln) (37 °C)
CGAUAGCAAUAUUACGAACC | -2.68 ± 0.27 | -0.913 ± 0.28
CGAUAGCAAUAUUACGAAGA |  | -2.21 ± 0.4
CGAUAGCAAUAUUACGACGC | -2.34 ± 0.39 | 0.00994 ± 0.27
CGAUAGCAAUAUUACGACUA | -1.8 ± 0.26 | -2.13 ± 0.23
CGAUAGCAAUAUUACGACUG | -0.203 ± 0.083 | 0.803 ± 0.1
CGAUAGCAAUAUUACGACUU | -1.4 ± 0.088 | -1.47 ± 0.13
CGAUAGCAAUAUUACGAUAA | -3.37 ± 0.27 | -2.2 ± 0.35
CGAUAGCAAUAUUACGCCGU | -2.9 ± 0.15 | -1.78 ± 0.14
CGAUAGCAAUAUUACGCGGC | -2.93 ± 0.41 | 
CGAUAGCAAUAUUACGCGUG | -1.89 ± 0.092 | -0.431 ± 0.1
CGAUAGCAAUAUUACGCUUC | -3.11 ± 0.26 | -2.99 ± 0.47
CGAUAGCAAUAUUACGGAUA |  | -0.838 ± 0.19
CGAUAGCAAUAUUACGGCCU | -1.67 ± 0.19 | -0.545 ± 0.2
CGAUAGCAAUAUUACGGCGG | -0.197 ± 0.077 | 0.211 ± 0.1
CGAUAGCAAUAUUACGGUCC | -1.2 ± 0.21 | -0.541 ± 0.23
CGAUAGCAAUAUUACGGUCG | -4.36 ± 0.29 | -3.39 ± 0.35
CGAUAGCAAUAUUACGGUGA | -2.74 ± 0.2 | -1.94 ± 0.19
CGAUAGCAAUAUUACGUAAU | -2.55 ± 0.15 | -1.92 ± 0.15
CGAUAGCAAUAUUACGUACC |  | -1.56 ± 0.44
CGAUAGCAAUAUUACGUGAG | -0.997 ± 0.07 | -0.771 ± 0.091

Sequence | self-splicing fitness (ln) (30 °C) | self-splicing fitness (ln) (37 °C)
CGAUAGCAAUAUUACGUUAA | -3.59 ± 0.21 | -1.15 ± 0.16
CGAUAGCAAUAUUACGUUAC | -3.47 ± 0.28 | -2.17 ± 0.2
CGAUAGCAAUAUUACGUUAU | -3.93 ± 0.33 | -1.61 ± 0.18
CGCAAGCAAUAUUACGAAAU | -3.48 ± 0.21 | -1.86 ± 0.18
CGCAAGCAAUAUUACGAACA | -0.432 ± 0.1 | 0.252 ± 0.1
CGCAAGCAAUAUUACGAAUA | -3.27 ± 0.21 | -2.4 ± 0.2
CGCAAGCAAUAUUACGACGA | -1.48 ± 0.11 | -0.997 ± 0.11
CGCAAGCAAUAUUACGACUU |  | -2.07 ± 0.25
CGCAAGCAAUAUUACGAUCC | -1.71 ± 0.12 | -1.36 ± 0.19
CGCAAGCAAUAUUACGAUCG | -1.19 ± 0.1 | -0.342 ± 0.14
CGCAAGCAAUAUUACGCAUU | -4.11 ± 0.19 | -3.12 ± 0.21
CGCAAGCAAUAUUACGCCUG | -1.96 ± 0.13 | -2.52 ± 0.23
CGCAAGCAAUAUUACGCGGA | -2.93 ± 0.28 | -2.41 ± 0.23
CGCAAGCAAUAUUACGCUCC | -2.06 ± 0.27 | -1.11 ± 0.38
CGCAAGCAAUAUUACGGAAC | -3.07 ± 0.21 | -2.87 ± 0.32
CGCAAGCAAUAUUACGGAGA | -3.09 ± 0.18 | -2.54 ± 0.19
CGCAAGCAAUAUUACGGAUU | -4.84 ± 0.34 | -1.5 ± 0.19
CGCAAGCAAUAUUACGGCGA | -1.91 ± 0.24 | -0.653 ± 0.17
CGCAAGCAAUAUUACGGCUU | -2.5 ± 0.14 | -2.28 ± 0.2
